Assay [1] concerns CAPAN-1 pancreatic cancer xenograft. The assay is described as follows: CAPAN-1 pancreatic cancer xenograft model. In kind it is in vivo, mouse. The settings on record: CAPAN-1 xenograft; PEG-BCT-100 20 mg/kg IV twice a week; DFMO 2% w/v in drinking water. The method, then: In one example embodiment, the CAPAN-1 tumour cells are maintained in vitro culture in EMEM medium supplemented with 10% heat inactivated fetal bovine serum at 37° C. in an atmosphere of 5% CO2 in air. The tumour cells are routinely sub-cultured twice weekly. The cells growing in an exponential growth phase are harvested and counted for tumour inoculation.
Each mouse is inoculated subcutaneously at the right flank region with CAPAN-1 tumour cells (5×10^6) in 0.1 ml of PBS (1:1 Matrigel) for tumour development. The treatments start when the mean tumour size reaches 119 mm^3. The date of tumour cell inoculation is denoted as day 0.
(§1) Four treatment groups of animals, with eight animals in each group, are tested. Control group (negative control) receives physiological saline, and the three treatment groups respectively receive 20 mg/kg of PEG-BCT-100 alone, 2% w/v DFMO in drinking water, and combination of 20 mg/kg of PEG-BCT-100 and 2% w/v DFMO. PEG-BCT-100 is administered intravenously, twice a week, until euthanization while DFMO is supplied in drinking water at 2% w/v.

In assay [2] the test system is H1650 lung adenocarcinoma xenografts. Description: H1650 lung adenocarcinoma xenograft. Format: in vivo, BALB/c nude mice. The settings on record: for median survival: PEG-BCT-100 20 mg/kg IP twice a week. The procedure:
In one example embodiment, ten million lung adenocarcinoma cells from cell lines H1650, H1975, and HCC4006 are engrafted subcutaneously in BALB/cnude mice (4 weeks old with body weight of 10-14 g). Body weight, clinical signs and survival times are recorded.
Two groups of the mice, with eight mice in each group, are tested. Control group (negative control) receives physiological saline and treatment group receives 20 mg/kg of PEG-BCT-100. PEG-BCT-100 is administered via intraperitoneal (IP) injection, twice weekly, until euthanization.
In one example embodiment, ten million lung adenocarcinoma cells from cell lines H1650, H1975 and HCC4006 are engrafted subcutaneously in BALB/cnude mice (4 weeks old with body weight of 10-14 g). Body weight, clinical signs and survival times are recorded.
Four groups of the mice, with eight mice in each group, are tested. Control group (negative control) receives physiological saline, and the three treatment groups respectively receive 20 mg/kg of PEG-BCT-100 alone, 2% w/v DFMO in drinking water, and combination of 20 mg/kg of PEG-BCT-100 and 2% w/v DFMO. PEG-BCT-100 is administered intraperitoneally, twice a week, until euthanization while DFMO is supplied in drinking water at 2% w/v.

Assay [3] deals with SU-DHL-10 B cell lymphoma xenograft. The assay is described as follows: SU-DHL-10 B cell lymphoma xenograft model. Format: in vivo, mouse. The conditions noted are these: SU-DHL-10 xenograft; PEG-BCT-100 20 mg/kg IV twice a week; DFMO 2% w/v in drinking water. The procedure:
In one example embodiment, SU-DHL-10 human lymphoma cells are maintained in vitro culture in RPMI1640 medium supplemented with 20% fetal bovine serum at 37° C. in an atmosphere of 5% CO2 in air. The tumour cells are routinely sub-cultured twice weekly. The cells in an exponential growth phase are harvested and counted for tumour inoculation.
One day before tumour inoculation, all mice are sub-lethally irradiated with 60Co (200 rad). Each mouse is inoculated subcutaneously at the right flank region with SU-DHL-10 tumour cells (1×10^7) in 0.1 ml of PBS/Matrigel (1:1) for tumour development. The treatments start when the mean tumour volume reached 116 mm^3. The date of tumour cell inoculation is denoted as day 0.
Four treatment groups of animals, with eight animals in each group, are tested. Control group (negative control) receives physiological saline, 20 mg/kg of PEG-BCT-100 alone, 2% w/v DFMO in drinking water, and combination of 20 mg/kg of PEG-BCT-100 and 2% w/v DFMO. PEG-BCT-100 is administered intravenously, twice a week, until euthanization while DFMO is supplied in drinking water at 2% w/v.

Another assay has as its system K-562 leukemia xenograft. Description: K-562 leukemia xenograft model. In kind it is in vivo, mouse. The settings on record: K-562 xenograft; PEG-BCT-100 20 mg/kg IV twice a week; DFMO 2% w/v in drinking water. The method, then: In one example embodiment, the K-562 tumour cells are maintained in vitro as a suspension culture in RPMI1640 medium supplemented with 10% heat inactivated fetal bovine serum at 37° C. in an atmosphere of 5% CO2 in air. The tumour cells are routinely sub-cultured twice weekly. The cells growing in an exponential growth phase are harvested and counted for tumour inoculation.
Each mouse is inoculated subcutaneously at the right flank region with K-562 tumour cells (5×10^6) in 0.1 ml of PBS/Matrigel (1:1) for tumour development. The treatments start when the mean tumour size reaches 125 mm^3. The date of tumour cell inoculation is denoted as day 0.
as §1

Assay [4] relates to SU-DHL-6 B cell lymphoma xenograft. The assay is described as follows: SU-DHL-6 B cell lymphoma xenograft model. Format: in vivo, mouse. The settings on record: SU-DHL-6 xenograft; PEG-BCT-100 20 mg/kg IV twice a week; DFMO 2% w/v in drinking water. The method, then:
In one example embodiment, the SU-DHL-6 human lymphoma cells are maintained in vitro as a suspension culture in RPMI1640 medium supplemented with 10% heat inactivated fetal bovine serum at 37° C. in an atmosphere of 5% CO2 in air. The tumour cells are routinely sub-cultured twice weekly. The cells growing in an exponential growth phase are harvested and counted for tumour inoculation.
One day before tumour inoculation, all mice are sub-lethally irradiated with 60Co (200 rad). Each mouse is inoculated subcutaneously at the right flank region with SU-DHL-6 tumour cells (5×10^6) in 0.1 ml of PBS/Matrigel (1:1) for tumour development. The treatments start when the mean tumour size reaches 125 mm^3. The date of tumour cell inoculation is denoted as day 0.
Four groups of animals, with eight animals in each group, are tested. Control group (negative control) receives physiological saline, and the three treatment groups respectively receive 20 mg/kg of PEG-BCT-100 alone, 2% w/v DFMO in drinking water, and a combination of 20 mg/kg of PEG-BCT-100 and 2% w/v DFMO. PEG-BCT-100 is administered intravenously, twice a week, until euthanization while DFMO is supplied in drinking water at 2% w/v.

“Also recorded” adds a separate entry of the source.

`NCCC[C@](N)(C(=O)O)C(F)F` [DFMO, α-difluoromethylornithine, reference compound]: the anti-tumour effect result is listed as “no significant anti-tumour effect” in assay [1], “no significant anti-tumour effect” in assay [3], “no significant anti-tumour effect” with K-562 leukemia xenograft and “do not produce a significant anti-tumour effect” in assay [4]. Also, the median survival in assay [2] (DFMO 2% w/v in drinking water) turned out to be 17 days.

B1: PEG-BCT-100: pegylated recombinant human arginase I (SEQ ID NO.1, or SEQ ID NO.3 with six histidines), about 6-12 PEG molecules per arginase (protein, UniProt P05089 1-322, looked up)
Arginase-1: MSAKSRTIGIIGAPFSKGQPRGGVEEGPTVLRKAGLLEKLKEQECDVKDYGDLPFADIPNDSPFQIVKNPRSVGKASEQLAGKVAEVKKNGRISLVLGGDHSLAIGSISGHARVHPDLGVIWVDAHTDINTPLTTTSGNLHGQPVSFLLKELKGKIPDVPGFSWVTPCISAKDIVYIGLRDVDPGEHYILKTLGIKYFSMTEVDRLGIGKVMEETLSYLLGRKKRPIHLSFDVDGLDPSFTPATGTPVVGGLTYREGLYITEEIYKTGLLSGLDIMEVNPSLGKTPEEVTRTVNTAVAITLACFGLAREGNHKPIDYLNPPK
modifications: PEG, about 6-12 per arginase; optional His6 tag
Turning to B1, the anti-tumour effect entry in assay [1] is on record as “no significant anti-tumour effect”; in assay [3], “slightly promotes SU-DHL-10 tumour growth”; in the assay with K-562 leukemia xenograft, “no significant anti-tumour effect”; in assay [4], “do not produce a significant anti-tumour effect”. In assay [2] (DFMO 2% w/v in drinking water), the median survival was 10 days. For the same molecule, the tumour growth result in assay [2] (PEG-BCT-100 20 mg/kg IP twice weekly, DFMO 2% w/v in drinking water, 20 mg/kg) was “induces lung adenocarcinoma proliferation; also recorded: promotes tumour growth”. The “in vivo ASS1 expression (Western blot)” value in assay [2] (PEG-BCT-100 20 mg/kg vs control arm) is “remains unchanged”. The “in vivo ODC expression (Western blot)” value in assay [2] (PEG-BCT-100 20 mg/kg vs control arm, 20 mg/kg) is on record as “increases; also recorded: over-expressed; also recorded: upregulated”.

The record behind these values is patent US20180271960A1, “METHOD TO TREAT CANCER USING ARGININE DELPETOR AND ORNITHINE DECARBOXYLASE (ODC) INHIBITOR” (Bio-Cancer Treatment International Ltd., priority 2015, published 2018).
